According to publication PMC10783490, “Biochemical and cellular insights into the Baz2B protein, a non-catalytic subunit of the chromatin remodeling complex” (Nucleic Acids Research, 2023):

Experiments:
Conditions in all cases: protein: recombinant; tags: His6
TAM-AT1-AT2 Baz2B [1] = target: T1, TAM-AT1-AT2 Baz2B (Homo sapiens, UniProt Q9UIF8 721-884); test: EMSA; mutant series; EMSA: 20 mM HEPES pH 7.5, 30 mM KCl, 1 mM EDTA, 10 mM (NH4)2SO4, 1 mM DTT, 4 C, 10 nM probe; MST: same plus 0.1 ug/ml BSA, 5 nM probe, 25 C; GST-AT-hook and bromodomain EMSA as in cited refs
T1 sequence: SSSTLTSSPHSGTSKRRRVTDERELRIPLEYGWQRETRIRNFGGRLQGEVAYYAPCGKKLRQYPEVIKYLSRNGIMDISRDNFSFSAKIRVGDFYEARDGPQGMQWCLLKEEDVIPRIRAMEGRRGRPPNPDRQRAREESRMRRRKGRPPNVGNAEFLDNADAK

TAM-AT1-AT2 Baz2B [2] = target: T1, TAM-AT1-AT2 Baz2B; test: MST; EMSA: 20 mM HEPES pH 7.5, 30 mM KCl, 1 mM EDTA, 10 mM (NH4)2SO4, 1 mM DTT, 4 C, 10 nM probe; MST: same plus 0.1 ug/ml BSA, 5 nM probe, 25 C; GST-AT-hook and bromodomain EMSA as in cited refs
TAM-AT1-AT2 Baz2B R760E = target: T2, TAM-AT1-AT2 Baz2B R760E (Homo sapiens, UniProt Q9UIF8 721-884, R760E); test: EMSA; EMSA: 20 mM HEPES pH 7.5, 30 mM KCl, 1 mM EDTA, 10 mM (NH4)2SO4, 1 mM DTT, 4 C, 10 nM probe; MST: same plus 0.1 ug/ml BSA, 5 nM probe, 25 C; GST-AT-hook and bromodomain EMSA as in cited refs
T2 sequence: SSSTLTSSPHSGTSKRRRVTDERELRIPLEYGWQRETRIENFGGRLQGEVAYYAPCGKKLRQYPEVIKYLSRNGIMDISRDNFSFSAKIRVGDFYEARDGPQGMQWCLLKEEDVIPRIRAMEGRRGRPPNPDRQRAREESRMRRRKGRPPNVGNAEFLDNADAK

TAM-AT1-AT2 Baz2B [3] = target: T1, TAM-AT1-AT2 Baz2B; test: as above
TAM-AT1-AT2 Baz2B R765E = target: T3, TAM-AT1-AT2 Baz2B R765E (Homo sapiens, UniProt Q9UIF8 721-884, R765E); test: as above
T3 sequence: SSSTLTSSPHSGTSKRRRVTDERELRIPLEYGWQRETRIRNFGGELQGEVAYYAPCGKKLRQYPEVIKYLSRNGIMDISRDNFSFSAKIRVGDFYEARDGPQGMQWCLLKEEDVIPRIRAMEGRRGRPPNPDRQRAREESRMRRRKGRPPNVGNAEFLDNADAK

TAM-AT1-AT2 Baz2B L766A = target: T4, TAM-AT1-AT2 Baz2B L766A (Homo sapiens, UniProt Q9UIF8 721-884, L766A); test: as above
T4 sequence: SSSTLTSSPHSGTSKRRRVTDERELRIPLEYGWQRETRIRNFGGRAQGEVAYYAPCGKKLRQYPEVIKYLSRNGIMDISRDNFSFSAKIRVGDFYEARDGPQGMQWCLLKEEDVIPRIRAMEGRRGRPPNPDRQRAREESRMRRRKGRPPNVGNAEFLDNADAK

TAM-AT1-AT2 Baz2B R781E = target: T5, TAM-AT1-AT2 Baz2B R781E (Homo sapiens, UniProt Q9UIF8 721-884, R781E); test: as above
T5 sequence: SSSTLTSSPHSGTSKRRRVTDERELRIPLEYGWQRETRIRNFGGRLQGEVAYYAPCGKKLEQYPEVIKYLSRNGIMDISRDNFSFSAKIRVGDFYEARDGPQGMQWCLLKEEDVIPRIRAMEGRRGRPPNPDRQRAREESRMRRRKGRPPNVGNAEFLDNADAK

TAM-AT1-AT2 Baz2B Q767A = target: T6, TAM-AT1-AT2 Baz2B Q767A (Homo sapiens, UniProt Q9UIF8 721-884, Q767A); test: as above
T6 sequence: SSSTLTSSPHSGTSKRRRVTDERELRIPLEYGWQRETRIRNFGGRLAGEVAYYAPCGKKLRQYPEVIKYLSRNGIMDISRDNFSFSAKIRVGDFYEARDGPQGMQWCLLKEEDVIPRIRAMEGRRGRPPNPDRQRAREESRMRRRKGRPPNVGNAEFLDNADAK

TAM-AT1-AT2 Baz2B R837E = target: T7, TAM-AT1-AT2 Baz2B R837E (Homo sapiens, UniProt Q9UIF8 721-884, R837E); test: as above
T7 sequence: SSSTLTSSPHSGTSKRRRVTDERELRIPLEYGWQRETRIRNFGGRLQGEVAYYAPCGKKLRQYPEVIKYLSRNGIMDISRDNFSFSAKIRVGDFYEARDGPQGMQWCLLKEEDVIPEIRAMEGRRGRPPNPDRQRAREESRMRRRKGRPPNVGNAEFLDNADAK

Binder: ATCAGTTCTCCGGGTTGTCAGGTCGACCAGTTGTTCCTTTGAGGT (ssDNA) [45 nt ssDNA FLP015]
- Kd (TAM-AT1-AT2 Baz2B [1]): 228 ± 97.8 nM
- Kd (TAM-AT1-AT2 Baz2B [2]): 160 nM
- Kd (TAM-AT1-AT2 Baz2B R760E): 161 ± 44.7 nM
- Kd (TAM-AT1-AT2 Baz2B [3]): 122 nM
- Kd (TAM-AT1-AT2 Baz2B R765E): 93.1 ± 13 nM
- Kd (TAM-AT1-AT2 Baz2B L766A): 275 ± 82.9 nM
- Kd (TAM-AT1-AT2 Baz2B R781E): 220 ± 110 nM
- Kd (TAM-AT1-AT2 Baz2B Q767A): 206 ± 81 nM
- Kd (TAM-AT1-AT2 Baz2B R837E): 248 ± 84.2 nM
